Assay [1] concerns the target T1, target peptide-BSA conjugate (…-BSA) (human; bovine, UniProt P02769 25-607, chemically conjugated to bovine serum albumin (BSA) using 3 maleimidoacetic acid N-hydroxysuccinimide (MBS)).
T1 construct: Typically on average ~4 peptide molecules per molecule of albumin; also called BSA-target peptide; BSA-peptide 2
The assay is described as follows: ELISA on coated peptide-BSA or BSA, detection with HRP anti-human Cκ.

For assay [2], the target named is T2, rat synaptophysin (in rat hepatic stellate cells) (rat, UniProt P07825 1-307).
T2 construct: In rat HSC extracts on a Western blot; also called synaptophysin in rat HSCs; rHSCs
Nature of the assay: Western blot of cell extracts (5 µg/lane) probed with C1-3 scAb. Background: Immunoblotting shows a protein as a band on a membrane.

T2 sequence (P07825 whole entry): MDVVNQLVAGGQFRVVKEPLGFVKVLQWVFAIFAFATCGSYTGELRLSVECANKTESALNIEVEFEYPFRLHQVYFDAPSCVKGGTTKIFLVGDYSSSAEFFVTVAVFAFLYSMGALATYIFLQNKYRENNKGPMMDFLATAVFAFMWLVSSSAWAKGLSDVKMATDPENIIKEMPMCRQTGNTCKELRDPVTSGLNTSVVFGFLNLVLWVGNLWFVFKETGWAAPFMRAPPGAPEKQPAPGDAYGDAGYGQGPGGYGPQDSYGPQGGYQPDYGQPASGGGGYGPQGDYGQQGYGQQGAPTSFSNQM
T1 sequence (P02769 25-607 limits assumed): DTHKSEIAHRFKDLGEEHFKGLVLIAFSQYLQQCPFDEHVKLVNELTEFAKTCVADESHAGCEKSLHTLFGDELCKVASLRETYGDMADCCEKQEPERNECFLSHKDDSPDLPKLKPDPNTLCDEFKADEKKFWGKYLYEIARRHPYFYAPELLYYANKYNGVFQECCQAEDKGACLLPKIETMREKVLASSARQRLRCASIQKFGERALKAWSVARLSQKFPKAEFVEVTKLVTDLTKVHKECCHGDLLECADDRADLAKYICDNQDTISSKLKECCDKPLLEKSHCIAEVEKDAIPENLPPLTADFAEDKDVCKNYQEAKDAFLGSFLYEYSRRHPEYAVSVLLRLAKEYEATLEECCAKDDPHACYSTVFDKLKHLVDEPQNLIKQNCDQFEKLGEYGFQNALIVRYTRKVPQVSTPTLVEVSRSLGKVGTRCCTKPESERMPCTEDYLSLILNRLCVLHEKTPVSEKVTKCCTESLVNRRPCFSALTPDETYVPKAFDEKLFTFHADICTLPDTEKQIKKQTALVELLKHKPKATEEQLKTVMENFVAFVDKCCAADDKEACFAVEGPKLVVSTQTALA

B1: C1-3 scAb (scFv)
scFv: MAEVQLLESGGGLVQPGGSLRLSCAASGFTFSSYAMSWVRQAPGKGLEWVSTIAASGPSTGYADSVKGRFTISRDNSKNTLYLQMNSLRAEDTAVYYCAKTTAKFDYWGQGTLVTVSSGGGGSGGGGSGGGGSTDIQMTQSPSSLSASVGDRVTITCRASQSISSYLNWYQQKPGKAPKLLIYSASRLQSGVPSRFNGSGSGTDFTLTISSLQPEDFATYYCQQLQRKPTTFGQGTKVEIKRGAAAPSVFIFPPSDEQLKSGTASVVCLLNNFYPREAKVQWKVDNALQSGNSQESVTEQDSKDSTYSLSSTLTLSKADYEKHKVYACEVTHQGLSSPVTKSFNRGESHHHHHH
notes: Single-chain antibody fragment: scFv fused to human C kappa and a hexa-histidine tag, expressed from pIMS147 in E. coli XL-1 blue; also called C1-3 scFv; clone pIMS147 C1-3
With B1, the “fold more scAb bound to peptide-BSA than to BSA alone” value in assay [1] was roughly 8 times. Further, the binding result in assay [2] was “no binding”.

Values taken from patent US20110165078A1 (UNIVERSITY COURT OF THE UNIVERSITY OF ABERDEEN, published 2011).
